# Reference: paper PMC4687643
# Tests used:
# [1] = biological target: GST-p85 SH3 domain (bovine) (UniProt P23727)
# [2] = biological target: GST-intersectin I SH3C domain (Xenopus laevis)
# [3] = biological target: GST-Formin Binding Protein 17 (FBP17) SH3 domain (human) (UniProt Q96RU3)
# [4] = biological target: GST-amphiphysin I SH3 domain (human) (UniProt P49418)
# [5] = biological target: GST-Actin binding protein 1 (Abp1) SH3 domain (mouse) (UniProt Q62418)
# [6] = biological target: GST-endophilin I SH3 domain (mouse) (UniProt Q62420)
# [7] = biological target: GST-Cdc42 interacting protein 4 (CIP4) SH3 domain (human) (UniProt Q15642)
# [8] = biological target: GST-syndapin I SH3 domain (mouse) (UniProt Q61644)
# [9] = biological target: GST-intersectin I SH3E domain (Xenopus laevis)
# [10] = biological target: GST-cortactin SH3 domain (mouse) (UniProt Q60598)
# [11] = biological target: GST-amphiphysin II SH3 domain (human) (UniProt O00499)
# [12] = biological target: GST-p85 SH3 domain (bovine) (UniProt P23727); remark: listed apart in the source
# [13] = biological target: GST-intersectin I SH3C domain (Xenopus laevis); remark: listed apart in the source
# [14] = biological target: GST-Formin Binding Protein 17 (FBP17) SH3 domain (human) (UniProt Q96RU3); remark: listed apart in the source
# [15] = biological target: GST-amphiphysin I SH3 domain (human) (UniProt P49418); remark: listed apart in the source
# [16] = biological target: GST-Actin binding protein 1 (Abp1) SH3 domain (mouse) (UniProt Q62418); remark: listed apart in the source
# [17] = biological target: GST-endophilin I SH3 domain (mouse) (UniProt Q62420); remark: listed apart in the source
# [18] = biological target: GST-Cdc42 interacting protein 4 (CIP4) SH3 domain (human) (UniProt Q15642); remark: listed apart in the source
# [19] = biological target: GST-syndapin I SH3 domain (mouse) (UniProt Q61644); remark: listed apart in the source
# [20] = biological target: GST-sorting-nexin 9 (SNX9) SH3 domain (human) (UniProt Q9Y5X1)
# [21] = biological target: GST-intersectin I SH3A domain (Xenopus laevis)
# [22] = biological target: GST-intersectin I SH3E domain (Xenopus laevis); remark: listed apart in the source
# [23] = biological target: GST-cortactin SH3 domain (mouse) (UniProt Q60598); remark: listed apart in the source
# [24] = biological target: GST-amphiphysin II SH3 domain (human) (UniProt O00499); remark: listed apart in the source
# Chain of GST-syndapin I SH3 domain (mouse) (Q61644 382-441): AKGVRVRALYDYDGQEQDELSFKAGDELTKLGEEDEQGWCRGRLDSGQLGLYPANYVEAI
# Chain of GST-amphiphysin II SH3 domain (human) (O00499 520-593): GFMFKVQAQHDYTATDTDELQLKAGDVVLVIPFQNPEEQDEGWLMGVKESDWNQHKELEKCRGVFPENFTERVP
# Chain of GST-Formin Binding Protein 17 (FBP17) SH3 domain (human) (Q96RU3 550-611): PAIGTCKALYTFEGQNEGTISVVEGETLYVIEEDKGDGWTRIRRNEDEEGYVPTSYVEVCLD
# Chain of GST-Cdc42 interacting protein 4 (CIP4) SH3 domain (human) (Q15642 540-601): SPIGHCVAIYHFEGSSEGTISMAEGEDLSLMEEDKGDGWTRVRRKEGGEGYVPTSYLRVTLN
# Chain of GST-cortactin SH3 domain (mouse) (Q60598 488-546): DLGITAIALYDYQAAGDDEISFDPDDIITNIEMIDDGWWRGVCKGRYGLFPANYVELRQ
# Chain of GST-endophilin I SH3 domain (mouse) (Q62420 290-349): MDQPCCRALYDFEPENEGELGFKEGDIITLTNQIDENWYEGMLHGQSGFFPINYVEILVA
# Chain of GST-amphiphysin I SH3 domain (human) (P49418 622-695): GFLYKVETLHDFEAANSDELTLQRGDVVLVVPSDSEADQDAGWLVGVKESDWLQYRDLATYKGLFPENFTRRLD
# Chain of GST-Actin binding protein 1 (Abp1) SH3 domain (mouse) (Q62418 377-436): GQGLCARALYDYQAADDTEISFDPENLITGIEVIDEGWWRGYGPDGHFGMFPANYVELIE
# Chain of GST-sorting-nexin 9 (SNX9) SH3 domain (human) (Q9Y5X1 1-62): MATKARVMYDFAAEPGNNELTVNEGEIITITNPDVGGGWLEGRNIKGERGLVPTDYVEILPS
"dynamin GTPase activity stimulated by the GST-SH3 domain (ELIPA, 150 mM NaCl) (μmoles Pi/mg of dynamin) [1]","dynamin GTPase activity stimulated by the GST-SH3 domain (ELIPA, 150 mM NaCl) (μmoles Pi/mg of dynamin) [2]","dynamin GTPase activity stimulated by the GST-SH3 domain (ELIPA, 150 mM NaCl) (μmoles Pi/mg of dynamin) [3]","dynamin GTPase activity stimulated by the GST-SH3 domain (ELIPA, 150 mM NaCl) (μmoles Pi/mg of dynamin) [4]","dynamin GTPase activity stimulated by the GST-SH3 domain (ELIPA, 150 mM NaCl) (μmoles Pi/mg of dynamin) [5]","dynamin GTPase activity stimulated by the GST-SH3 domain (ELIPA, 150 mM NaCl) (μmoles Pi/mg of dynamin) [6]","dynamin GTPase activity stimulated by the GST-SH3 domain (ELIPA, 150 mM NaCl) (μmoles Pi/mg of dynamin) [7]","dynamin GTPase activity stimulated by the GST-SH3 domain (ELIPA, 150 mM NaCl) (μmoles Pi/mg of dynamin) [8]","dynamin GTPase activity stimulated by the GST-SH3 domain (ELIPA, 150 mM NaCl) (μmoles Pi/mg of dynamin) [9]","dynamin GTPase activity stimulated by the GST-SH3 domain (ELIPA, 150 mM NaCl) (μmoles Pi/mg of dynamin) [10]","dynamin GTPase activity stimulated by the GST-SH3 domain (ELIPA, 150 mM NaCl) (μmoles Pi/mg of dynamin) [11]","rate of dynamin GTPase activity stimulated by the GST-SH3 domain (ELIPA, 30 mM NaCl, basal rate subtracted) (μmoles Pi/mg of dyn/min) [12]","rate of dynamin GTPase activity stimulated by the GST-SH3 domain (ELIPA, 30 mM NaCl, basal rate subtracted) (μmoles Pi/mg of dyn/min) [13]","rate of dynamin GTPase activity stimulated by the GST-SH3 domain (ELIPA, 30 mM NaCl, basal rate subtracted) (μmoles Pi/mg of dyn/min) [14]","rate of dynamin GTPase activity stimulated by the GST-SH3 domain (ELIPA, 30 mM NaCl, basal rate subtracted) (μmoles Pi/mg of dyn/min) [15]","rate of dynamin GTPase activity stimulated by the GST-SH3 domain (ELIPA, 30 mM NaCl, basal rate subtracted) (μmoles Pi/mg of dyn/min) [16]","rate of dynamin GTPase activity stimulated by the GST-SH3 domain (ELIPA, 30 mM NaCl, basal rate subtracted) (μmoles Pi/mg of dyn/min) [17]","rate of dynamin GTPase activity stimulated by the GST-SH3 domain (ELIPA, 30 mM NaCl, basal rate subtracted) (μmoles Pi/mg of dyn/min) [18]","rate of dynamin GTPase activity stimulated by the GST-SH3 domain (ELIPA, 30 mM NaCl, basal rate subtracted) (μmoles Pi/mg of dyn/min) [19]","rate of dynamin GTPase activity stimulated by the GST-SH3 domain (ELIPA, 30 mM NaCl, basal rate subtracted) (μmoles Pi/mg of dyn/min) [20]",Substance,other results
< 0.03,< 0.03,< 0.03,< 0.03,< 0.03,< 0.03,< 0.03,< 0.03,< 0.03,< 0.03,< 0.03,0.014,0,0.084,0.032,0.011,0.032,0,0.026,0.03,recombinant human dynamin I middle domain splice variant Iab (enzyme),"rate of dynamin GTPase activity stimulated by the GST-SH3 domain (ELIPA, 30 mM NaCl, basal rate subtracted) (μmoles Pi/mg of dyn/min) [21]: 0.026; rate of dynamin GTPase activity stimulated by the GST-SH3 domain (ELIPA, 30 mM NaCl, basal rate subtracted) (μmoles Pi/mg of dyn/min) [22]: 0.023; rate of dynamin GTPase activity stimulated by the GST-SH3 domain (ELIPA, 30 mM NaCl, basal rate subtracted) (μmoles Pi/mg of dyn/min) [23]: 0.03; rate of dynamin GTPase activity stimulated by the GST-SH3 domain (ELIPA, 30 mM NaCl, basal rate subtracted) (μmoles Pi/mg of dyn/min) [24]: 0.01"
< 0.03,< 0.03,< 0.03,< 0.03,< 0.03,< 0.03,< 0.03,< 0.03,< 0.03,< 0.03,< 0.03,0.02,0.017,0.098,0.056,0.011,0.016,0.019,0.068,0.041,recombinant human dynamin I middle domain splice variant Ibb (enzyme),"rate of dynamin GTPase activity stimulated by the GST-SH3 domain (ELIPA, 30 mM NaCl, basal rate subtracted) (μmoles Pi/mg of dyn/min) [21]: 0.075; rate of dynamin GTPase activity stimulated by the GST-SH3 domain (ELIPA, 30 mM NaCl, basal rate subtracted) (μmoles Pi/mg of dyn/min) [22]: 0.036; rate of dynamin GTPase activity stimulated by the GST-SH3 domain (ELIPA, 30 mM NaCl, basal rate subtracted) (μmoles Pi/mg of dyn/min) [23]: 0.102; rate of dynamin GTPase activity stimulated by the GST-SH3 domain (ELIPA, 30 mM NaCl, basal rate subtracted) (μmoles Pi/mg of dyn/min) [24]: 0.013"
